Measured values from the DeepSol protein solubility set.

Assay: soluble on expression in E. coli; label from the status in PepcDB or PDB records

Sequence	soluble on expression in E. coli
NKSIRMTPSQVAFEIRGTLLPGEVFAICGSCDALGNWNPQNAVALLPENDTGESMLWKATIVLSRGVSVQYRYFKGYFLEPKTIGGPCQVIVHKWETHLQPRSITPLESEIIIDDGQFGIHNGVETLDSGWLTCQTEIRLRLHYSEKPPVSITKKKLKKSRFRVKLTLEGLEEDDDDRVSPTVLHKMSNSLEISLISDNEFKCRHSQPECGYGLQPDRWTEYSIQTMEPDNLELIFDFFEEDLSEHVVQGDALPGHVGTACLLSSTIAESGKSAGILTLPIMSRNSRKTIGKVRVDYIIIKPLPGYSCDMKSSFSKYWKPRIPLDVGHRGAGNSTTTAQLAKVQENTIASLRNAASHGAAFVEFDVHLSKDFVPVVYHDLTCCLTMKKKFDADPVELFEIPVKELTFDQLQLLKLTHVTALKSKDRKESVVQEENSFSENQPFPSLKMVLESLPEDVGFNIEIKWICQQRDGMWDGNLSTYFDMNLFLDIILKTVLENSGKRRIVFSSFDADICTMVRQKQNKYPILFLTQGKSEIYPELMDLRSRTTPIAMSFAQFENLLGINVHTEDLLRNPSYIQEAKAKGLVIFCWGDDTNDPENRRKLKELGVNGLIYDRIYDWMPEQPNIFQVEQLERLKQELPELKSCLCPTVSRFVPSSLCGESDIHVDANGIDNVENA	soluble
NLDALREVLECPICMESFTEEQLRPKLLHCGHTICRQCLEKLLASSINGVRCPFCSKITRITSLTQLTDNLTVLK	soluble
NMAGMNDKASMNDKASMTVKINESLPQGNGKALGTVTVTETAYGLLFTPHLTGLAPGIHGFHLHEKPSCAPGMKDGKAVPALAAGGHLDPNKTGVHLGPYNDKGHLGDLPGLVVNADGTATYPVLAPRLKSLSEVKQHALMIHAGGDNYSDHPMPLGGGGARMACGVIE	soluble
NNTPVTNKLKAYGDANFNFTNNSIADAEKQVQEAYKGLLNLNEKNASDKLLVEDNTAATVGNLRKLGWVLSSKNGTRNEKSQQVKHADEVLFEGKGGVQVTSTSENGKHTITFALA	soluble
NQKMIASAFNNALGAIQDGFDATNSALGKIQSVVNANAEALNNLLNQLSLVPRGSGGSGGSGGLNVTLLDLTYEMNRIQDAIKKLNESYINLKE	soluble
NQLLTQQANEDGLTKLFNRRYIDQKLDSMVAWHGRHHMPMAMILLDVDFFKPFNDNYGHIEGDRCLQAIANQLKATFCRSGEYVGRYGGEEFVVLLSSTDAQTAEREAERIQEAMYFLDYQHEFSSVANRVTVSQGVFVFQPTGKENQADLYATADRALYTSKSLGRNTYTMVNAS	not soluble
NSAAIWGEGDVSALQSDTESGAYIEESSMVAADPLADYLSKPKLEALIASTKKQMLAAAKELDFLEAARLRDEAARLEKKLEQLTA	not soluble
NSDALVSIQTSKLPKTAYTATDFIKTAQYKYNHIVSNTVYELDLFQNAVSYADFAVLELELNLANNRDQQIFDSFINPAVTAYEKLGNSLGLFSNLQLDQYVDDTHYLLGYPLLKREKTSY	not soluble
NSDSECPLSHDGYCLHDGVCMYIEALDKYACNCVVGYIGERCQYRDLKWWELR	soluble
NSDSMILVTVNPKTKKTTMTSLERDTLTTLSGPKNNEMNGVEAKLNAAYAAGGAQMAIMTVQDLLNITIDNYVQINMQGLIDLVNAVGGITVTNEFDFPISIAENEPEYQATVAPGTHKINGEQALVYARMRYDDPEGDYGRQKRQREVIQKVLKKILA	not soluble
NTLGMVMHADGGYLGSKPYCASGQYIKRMSDYCRGCAYKVTESTTDDACPFNALYWHFLMRHSDQLRRNQRMGMIYKNLDRMAEAKQQALWERGEHLLARLDAGEAL	not soluble
NTLKAGQTQSFNDWFPDDNFASEVAAAFEMQATDTISEEQLATLTSLDCHNSSITDMTGIEKLTGLTKLICTSNNITTLDLSQNTNLTYLACDSNKLTNLDVTPLTKLTYLNCDTNKLTKLDVSQNPLLTYLNCARNTLTEIDVSHNTQLTELDCHLNKKITKLDVTPQTQLTTLDCSFNKITELDVSQNKLLNRLNCDTNNITKLDLNQNIQLTFLDCSSNKLTEIDVTPLTQLTYFDCSVNPLTELDVSTLSKLTTLHCIQTDLLEIDLTHNTQLIYFQAEGCRKIKELDVTHNTQLYLLDCQAAGITELDLSQNPKLVYLYLNNTELTELDVSHNTKLKSLSCVNAHIQDFSSVGKIPALNNNFEAEGQTITMPKETLTNNSLTIAVSPDLLDQFGNPMNIEPGDGGVYDQATNTITWENLSTDNPAVTYTFTSENGAIVGTVTTPFEAPQPIK	soluble
NTWKIFVGNVSAACTSQELRSLFERRGRVIECDVVKDYAFVHMEKEADAKAAIAQLNGKEVKGKRINVELSTKGQKK	soluble
